Laboratory results taken from US20100160228A1 (VALTION TEKNILLINEN TUTKIMUSKESKUS, published 2010).

Target: T1, VEGFR1, stably expressed in PAE cells (PAE-Flt1) (UniProt P17948 27-1338, limits assumed)
T1 construct: whole, on cells
Assay: co-immunoprecipitation with anti-TCPTP from PAE-Flt1 cells transfected with the substrate-trapping mutant, immunoblot
Description: Immunoprecipitations. […] After washings, the immunocomplexes were resolved on SDS-PAGE and subjected to immunoblotting. Aliquots of the original lysates (5% from IP input) were analyzed in parallel to control for protein expression.

T1 sequence (P17948 27-1338 limits assumed): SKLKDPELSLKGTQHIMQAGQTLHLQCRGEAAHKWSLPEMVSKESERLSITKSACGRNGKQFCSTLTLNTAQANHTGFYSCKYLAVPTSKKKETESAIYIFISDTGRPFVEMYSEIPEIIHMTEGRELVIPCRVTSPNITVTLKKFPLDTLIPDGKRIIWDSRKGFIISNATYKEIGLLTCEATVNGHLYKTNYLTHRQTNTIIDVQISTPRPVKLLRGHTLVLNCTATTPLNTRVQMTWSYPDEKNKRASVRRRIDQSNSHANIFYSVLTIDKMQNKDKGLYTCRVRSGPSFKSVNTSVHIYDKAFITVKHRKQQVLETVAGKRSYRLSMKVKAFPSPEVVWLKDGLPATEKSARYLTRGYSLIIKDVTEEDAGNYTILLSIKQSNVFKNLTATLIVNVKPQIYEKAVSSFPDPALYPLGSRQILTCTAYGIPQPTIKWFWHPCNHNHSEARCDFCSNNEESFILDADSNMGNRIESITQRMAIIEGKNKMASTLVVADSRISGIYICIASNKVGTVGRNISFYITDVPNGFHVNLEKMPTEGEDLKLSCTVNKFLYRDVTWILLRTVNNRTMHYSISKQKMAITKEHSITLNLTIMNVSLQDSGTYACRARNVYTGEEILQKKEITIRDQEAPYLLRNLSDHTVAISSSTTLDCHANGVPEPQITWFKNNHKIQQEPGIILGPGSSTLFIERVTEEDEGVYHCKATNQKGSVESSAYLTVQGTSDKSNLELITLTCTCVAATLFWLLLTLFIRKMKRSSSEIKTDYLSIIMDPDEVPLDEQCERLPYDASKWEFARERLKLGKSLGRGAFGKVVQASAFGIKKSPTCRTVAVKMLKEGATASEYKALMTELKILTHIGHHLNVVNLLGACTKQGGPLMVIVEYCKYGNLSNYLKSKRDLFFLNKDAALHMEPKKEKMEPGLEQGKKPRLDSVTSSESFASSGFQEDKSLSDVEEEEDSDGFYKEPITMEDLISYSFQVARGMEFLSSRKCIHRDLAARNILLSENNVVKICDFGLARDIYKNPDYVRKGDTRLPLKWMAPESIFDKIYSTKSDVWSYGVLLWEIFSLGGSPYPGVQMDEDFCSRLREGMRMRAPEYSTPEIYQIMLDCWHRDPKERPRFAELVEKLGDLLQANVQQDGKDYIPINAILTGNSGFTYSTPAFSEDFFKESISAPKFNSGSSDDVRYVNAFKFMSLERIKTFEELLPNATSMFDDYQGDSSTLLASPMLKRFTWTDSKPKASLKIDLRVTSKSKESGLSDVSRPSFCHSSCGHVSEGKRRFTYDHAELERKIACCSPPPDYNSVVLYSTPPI

B1: substrate-trapping mutant of TCPTP (TCPTP-D182A) (enzyme, UniProt P17706-2 1-387, looked up)
chain: MPTTIEREFEELDTQRRWQPLYLEIRNESHDYPHRVAKFPENRNRNRYRDVSPYDHSRVKLQNAENDYINASLVDIEEAQRSYILTQGPLPNTCCHFWLMVWQQKTKAVVMLNRIVEKESVKCAQYWPTDDQEMLFKETGFSVKLLSEDVKSYYTVHLLQLENINSGETRTISHFHYTTWPAFGVPESPASFLNFLFKVRESGSLNPDHGPAVIHCSAGIGRSGTFSLVDTCLVLMEKGDDINIKQVLLNMRKYRMGLIQTPDQLRFSYMAIIEGAKCIKGDSSIQKRWKELSKEDLSPAFDHSPNKIMTEKYNGNRIGLEEEKLTGDRCTGLSSKMQDTMEENSESALRKRIREDRKATTAQKVQQMKQRLNENERKRKRPRLTDT
notes: Expressed by transient transfection in HEK293 or PAE-Flt1 cells and immunoprecipitated from lysates with anti-TCPTP; also called pCG-TC45-D182A; T-cell protein tyrosine phosphatase D182A
  binding result: no binding
